Measurements taken from the DeepSol protein solubility set.

Test: soluble on expression in E. coli; label from the status in PepcDB or PDB records

Row | Sequence | soluble on expression in E. coli
1 | MRRLLWLLTLGALAVALTACPRKAEEEAATETAPAEETSLPGANVRVGLAFDAGGKFDRSFNQSAWEGAQRAAQELGVQIFDFEPADPSQVGQGIRTFAEEGFDLVIGVGFANEPAITATAKEFPNVKFAVIDAVPGEGQLPNALGVVFREHEGSFLVGYVAGKLSRTGVVGFIGGMDIPLIHKFEAGFRAGAEYAFQEDGIQGRVLVGYVGNTPAAWNDPAKAKEIASSQARQGADIIYAAAGGSGLGLIDFVKEEMCLREGGAVRFVREDRFADVPKYPAYEEKCGEGTTPLFFIGVDANQNYLGDTDNDPTTLNHGLTSMVKRVDVAVYDTIKSVVDGTFQGGVKDLGLAEEGVGYALDEYNQALIPEEVKARLEELKQAIINGEIQVPETR | soluble
2 | VSGTRPAARRTNLTAAQNVVRSVDAEERIAWVSKALCRTTDPDELFVRGAAQRKAAVICRHCPVMQECAADALDNKVEFGVWGGMTERQRRALLKQHPEVVSWSDYLEKRKRRTGTAG | soluble
3 | MGHHHHHHSHRSSDCPYIVQFYGALFREGDCWICMELMSTSFDKFYKYVYSVLDDVIPEEILGKITLATVKALNHLKENLKIIHRDIKPSNILLDRSGNIKLCDFGISGQLVDSIAKTRDAGCRPYMAPERIDPSASRQGYDVRSDVWSLGITLYELATGRFPYPKWNSVFDQLTQVVKGDPPQLS | not soluble
4 | MSSPRSNKPKIVNGPGGYILQDVPHLIDYLPDLPTYPNPLQDNPAYSVVKQYFVHADDSVPEKVVVHKDGPRGVHFRRAGPRQKVYFESDEVHACIVTCGGLCPGLNTVIREVVSSLSYMYGVKRILGIDGGYRGFYAKNTIPLNSKVVNDIHKRGGTIIGTSRGGHDTNKIVDSIQDRGINQVYIIGGDGTQRGASVIFEEIRRRRLKVAVVGIPKTIDNDIPVIDKSFGFDTAVEEAQRAINAAHVEAESNENGIGFVKLMGRYSGYIAMYATLASRDVDCCLIPESPFYLEGEGGLFEFIERRLKDHGHMVIVLAEGAGQDLMCKSMESTPMDASGNKLLKDVGLWLSQSIKDHFKKNKMVMNLKYIDPTYMIRAVPSNASDNVYCTLLAQSAVHGAMAGYTGYTSGLVNGRQTYIPFYRITETQNNVVITDRMWARLLSSTNQPSFLGPKDTSEEKKELPETPLLDDGAVDIPPVTKEVTK | soluble
5 | MGSDKIHHHHHHMKAGLRIGLVGPLPPPSGGMANQTLQLAGLLREEHVEVELIQVNRPYRPGWIGRFKGIRAGFRLLSYVSQLWLSAGRVQLFHVMANSGWSWHLFAAPAIWIARLRGKPVIINYRGGEADSFFDKAFSWVKPSLSRANAIIVPSGFLEGVFGKRGFSASIVPNIIDLSRFGAGMRSDTSTVEAGPDSPHIIVTRNLEPIYDNETALRAFHIVRRSFPAAKLTLAGSGPERHTLEQLAFALGIGGAVTFTGRVDNEGMAAIYRSASVMLNPSLADNMPISILEALASGVPVVSTNVGGVPYLVEHEKNALLVPARDPQAMANAVLRLLNDAARTRRLIEAGMECVQRYTWPNVRVPLFRVYEQVLAAPDRSC | not soluble
6 | MYSIKMRSSNQDVHISGAETICEFDKIEQTVQRFYNKGFFHENGQPDFLNIKIQKIMEPIQQIKALQIIEDDKANLQHLTQECGVTEQALNQGMTYIKNETVYTGAIILSAISGKRLDSFGQRGIRATHFSFEDINNKGDLNERVTDALAIASCINAHPYVKGELCVSDDLTYTTGYFAAAKIGYHRLFDIKPVNTRYGGRIIFVDDCIDLNHYISFLESTPKQVVYETV | not soluble
7 | MGSDKIHHHHHHMSHEVDPRVDKTRRRLRQALITLLQTETVDNISVQKLTSTAAVTRGTFYLHYKDKPAFVDQALDDLVSELFETAIVTVSVGDIMTNPADPLQRVHVFSLSKALSYISQHAEAFETLLLDQRQLAVNQRINQQMTTWMTKFHRDFQDQFADLEVPVSIQIAYYVSATVGLITDWLANDMIYTPHYLTKCIKKMHHLMTVGSISFTDFFVK | not soluble
8 | MGSDKIHHHHHHMKIGVFVPIGNNGWLISTHAPQYMPTFELNKAIVQKAEHYHFDFALSMIKLRGFGGKTEFWDHNLESFTLMAGLAAVTSKIQIYATAATLTLPPAIVARMASTIDSISGGRFGVNLVTGWQKPEYDQMGMWPGDDYFASRYDYLTEYVQVLRDLWGTGRSDFKGDYFTMNDCRVSPRPSQPMKVICAGQSDAGMAFSAQHADYNFCFGKGVNTPTAFAPTAARMMQAAEKTGRDVGSYVLFMVIADETDEAARAKWEHYKAGADEEALAWLTEQSQKDTRSGSDTNVRQMADPTSAVNINMGTLVGSYASVARMLDEVASVPGTDGVLLTFDDFLAGIDAFGERIQPLMRCRNHIASVTREVA | not soluble
9 | MAHHHHHHMEEHPKILSIAGSDSCAGAGMQADLKTAMSLGCHCCTILVVLTAQNTKEVKSIIEVDEKFIVEQLDAIFTDITIEVVKLGVLYSKKIISLIHNYITNINKMREKKLLVVFDPVFVSSSGCMLVENLDYVKYALDLICPLSCIITPNFYECKVILEALNFNIDINNMRTSDLCKLVTEKLNINACLFKSCNIDINTEDENKLYAVDHLCIKNDNDYDTKIKQNISYDVYKLKSKRNPQKDIHGTGCTLSTAISCFLSKKYDIIQACIESKKYIYNCINYAYDLGSKSQGLNHLKAAQHLTDFRELQVIKVD | soluble
10 | MSLMGYKNNRVGYQKELLTSRAVIKKDNYAIIPHDGLVQNAVPGFENVDISILGSPKLGATFVDYIATFHKNGQQTTGFGGDGIQTLVYVIDGRLRVSDGQETHELEAGGYAYFTPEMKMYLANAQEADTEVFLYKKRYQPLAGHQPYKVVGSIHDQQPEEYEGMTDVLLWSLLPKEFDFDMNMHILSFEPGASHAYIETHVQEHGAYLISGQGMYNLDNEWYPVEKGDYIFMSAYVPQAAYAVGREEPLMYVYSKDANREPELEGGSHHHHHH | soluble
11 | MGSDKIHHHHHHMKKEQIIQGPCTIKVLEGEARILGIEIQKNDLLTIPSDKTYTLVYDENTRLETDCKKLLDNLNLRWDEIVEEIINTVGVVLLLGNVDSGKTYLTNLFTNLATSYLKIIDADVGQSTLFLPTFIAELKPMRKTLNLEELGYDTLEFFGDITPSTNPRLHVQKILRLYETTPKERLTVIDTDGWTVGLNSMLHKFELIYTIDPDYIIVFDQKIKDSLPENYRNKAILLKSVNLHKSRSERKANRIAKYERYFKEAKNIKTLSENLLGKQISNILYCAWGEYIQLSDEEPCTDYYIPLNLLKGALLGIIENKKVIGAALLDDLKENEITILSRVNKFTGLVLGYISLNDKFEERRIRFRKCKS | not soluble
12 | MEDDDLLPLSALQHYLYCPRQCALIHLEQQWEDNAQTAEGRLLHERADKPAMETRRGVRTASAMALASPRLGIAGVADIVEFHDWSDGERAYPVEYKRGRPKAHRADEVQLCAQALCLEDMLGAAIPEGALYYGKTRRRRPVAFDNALRRLTLETIAAARAMFDSRQTPRMGYEARRCDACSLLERCQPRLLDRAQSVDQWLKQQWDALEHHHHHH | not soluble
13 | MRLITFAGHYFSRIIIMINRALVRSRVLQQAYVYYHRDDADIQSAEKELLNSLEQTYDLYLYYLLLVPELTRLHAEALEANKNKHLATEKDKNPNLRMVRNRLAEKIESCRPLWVRAEQNALNWRSEEAFLRRLLKKIHLSETFTRYMRSDATDDFEADRLFWNELMRDIILPDEELAEVMEEQSIFWDNQIQLIEKIETEEAPDIEEVEQSVRQAVADGNYQTIRQENAPIEIVKEFVLKTIRRIEQDTDPSAILLPAYKEKDDAVFGTTLLRNAIINGQEYRH | not soluble
14 | MTGTVYKLFGNRLLNARNQLDKNLLEMAMQMVYGKDMVTKSGDILIDIQLNKDGSLQSKHYTLDVGEVINSYNIDPLCECFKY | not soluble
15 | MAHHHHHHMQMEEKQAFFVESVDGRKFKMVIRGDLGKLSVAKIRRYLKSYGVPENQLLLAGNRVLEDAMLGEQFGLENEGVLHLREPTTVQHLAPAAVPSTAQSRTQLQQKPELSYEPQSAWRETRYEPAAHDARQMQREIERLQRQVEAAEARNADLEHQLEQVAESSAPYPPRGGA | not soluble
16 | ALGAPDGVTQGASLSRSIQPLLDAHPGKTGLHVLEKGEESLLARAWLADHATETIDVQYFIWSTDNIGILASEALLRAAERGVRVRVLVDDLLIDAPPESLLALARHPRIDIRIYNPTMTVGTSKVKRLGNVVTGFRSVNQRMHDKTALFDGVVGITGGRNMADEYYDYDQEYTFRDRDILMLGPAVAEAEASFARFWESPLAVPVEKLLKKGMKKMT | not soluble
17 | MGSDKIHHHHHHMMAEALQRENPSGFEGSVAGLPLTDVIQLKGQNRFSGCIAVEYRERQGMIFFRDGDIIHAEQGKLMGEMALYEIIRWPGGRFNIQPKVTTTSRTIQQSISFLLLEAHRLMDEEQAAVRADEGTRREEAAAPAAVQNRMSAVAERIVRIAGVSYAVLMKKDGTPLEDDSFEAEVLSAKGMSLAGIGSRLGELFGLDEVKSAAVHARGKQILLFEAKNHYVSIAVRGDSSLAHVENEIRSTFAGRK | not soluble
18 | RKQAEEKLVASERFLRMLTNQLPGMVGYWDRDLRCRFANDAYKEWFGRSPEQIIGLTVQELMGEELFRLSEPYIRGALQGEPQNFERELVKPNGETGYTWAQYIPDMVNDKAIGFFVLISDVT | not soluble
19 | MAAPLIPVLTAPTAAGKTALALRLAREYGLEIVAADAFTVYRGLDLGTAKPTPQERASVPHHLLDVVDVTQSYDVAQYAAQAEAAIVDILARGRLPLVVGGTGFYLSALSRGLPLTPPSDPKMRAALEAELQERGLDALLAEIEQANPAEAARMERNPRRVVRALEVYRAAGRFPGEFGYSPPAFQYQVFAFSPPAAEMEQRVQERTAAMLRAGWPQEAQWLAGQVPPEQEPRPTVWQALGYAEALAVAQGRLSLAGAEQAIALATRQYGKRQLTWMRRQLGAEVQSPDAAEAHLRAFLERSGAPSLEHHHHHH | not soluble
20 | MWPTHDLPILSNKSLILRKLQIEDTPRLVELAQDPAMRNFTTIPSPFTVENALEFISSSSVPTDSLVRWAIATADKPSIYLGTIELRAQSPICVDIGYSLHPHARGLGIMPKAVRLVSNYALSVGFHRVEIKIRTSNVASRRATERARATFEGIAHKAELHRGSIYDLAIYSITS | not soluble
21 | MLYREHHSWIYTWLYRRLGNSADAADLAQDTFIRVITRKSLLEIEQPRAYLTTVAKSLMLNWFNRRNIEQAYLEVLANQPEFEHPSPEQRYLIVETLIEVIQLLDTLPDQIRDVFLHAQLENMNYQQIADQFNLSLSTVKRHIKKAYIHCLTAMLDTDFSC | not soluble
22 | MGSDKIHHHHHHMKVKWSRDFSIKNMQLDKQHELIFEITNLANDLALNIQDNNTQHKNDLKQILVKLFQYIKIHFKDEEKFMESIDFPLIEEHKKSHQILVEKTKELLEHSNDIVKMSQELSILTKDWILDHFANEDLWIANFTKKTLHLQEIHYTLEQYIKLKSIKQDLRAEKTYDYICNCSLRIHAVPQTIHQELVSKENTLKCEKCGQILVHLDYFDLNQNFEKFNAIFEDALQNHHFTTQENDMRGGG | not soluble
23 | MAHHHHHHMASLTVPAHVPSAAEDCEQLRSAFKGWGTNEKLIISILAHRTAAQRKLIRQTYAETFGEDLLKELDRELTHDFEKLVLVWTLDPSERDAHLAKEATKRWTKSNFVLVELACTRSPKELVLAREAYHARYKKSLEEDVAYHTTGDHRKLLVPLVSSYRYGGEEVDLRLAKAESKILHEKISDKAYSDDEVIRILATRSKAQLNATLNHYKDEHGEDILKQLEDGDEFVALLRATIKGLVYPEHYFVEVLRDAINRRGTEEDHLTRVIATRAEVDLKIIADEYQKRDSIPLGRAIAKDTRGDYESMLLALLGQEED | soluble
